Results published in patent US9969795.

Molecular target: recombinant influenza HA3-protein (from H3N2, Wyoming, March 2003, Sino Biological Inc.) (Influenza virus H3N2 (Wyoming, March 2003))
Assay: SPR imaging (IBIS MX96), antibody captured on anti-human-IgG chip, HA3 1 ug/ml; global 1:1 fit in Scrubber2

| Binder | Kd | koff | kon |
| --- | --- | --- | --- |
| AT10_004 mutant C (antibody, V domains shown) VH: QVQLVQSGAEVRKPGASVKVSCKASGYTFTRHGISWVRQAPGQGLEWMGWISAYTGDTDYAQKFQGRVTMTTDTSTNTAYMELRSLRSDDAAVYYCARLRLQGEVVVPPSQSNWFDPWGQGTLVTVSS VL: EIVLTQSPATLSLYPGERATLSCRASQSVSRFLAWYQQKPGQAPRLLIYDASNRATGIPARFSGSGSGTDFTLTISSLEPEDFAVYYCQQRYNWLKITFGQGTRLEIKG | 0.06 nM | 1e-06 s⁻¹ | 17000 M⁻¹ s⁻¹ |
| AT10_004 mutant B (antibody, V domains shown) VH: QVQLVQSGAEVRKPGASVKVSCKASGYTFTRHGISWVRQAPGQGLEWMGWISAYTGDTDYAQKFQGRVTMTTDTSTNTAYMELRSLRSDDAAVYYCARLRLQGEVVVPPSQSNWFDPWGQGTLVTVSS VL: EIVLTQSPATLSLYPGERATLSCRASQSVSRYLAWYQQKPGQAPRLLIYDASNRATGIPARFSGSGSGTDFTLTISSLEPEDFAVYYCQQRYNWLKITFGQGTRLEIKG | 0.05 nM | 1e-06 s⁻¹ | 19000 M⁻¹ s⁻¹ |
